B1: p53_R248W_A2_c12 (scFv)
scFv: DIQMTQSPSSLSASVGDRVTITCRASQDVNTAVAWYQQKPGKAPKLLIYSASFLYSGVPSRFSGSRSGTDFTLTISSLQPEDFATYYCQQYSYAPITFGQGTKVEIKRTGGGSGGGGSGGGASEVQLVESGGGLVQPGGSLRLSCAASGFNIGYYTMHWVRQAPGKGLEWVAEVSPWSYSTSYADSVKGRFTISADTSKNTAYLQMNSLRAEDTAVYYCSRDHWDEAFDVWGQGTLVTVSS
B2: KRAS_G12V_A11_V23 (scFv)
scFv: DIQMTQSPSSLSASVGDRVTITCRASQDVNTAVAWYQQKPGKAPKLLIYSASFLYSGVPSRFSGSRSGTDFTLTISSLQPEDFATYYCQQYSYYPITFGQGTKVEIKRTGGGSGGGGSGGGASEVQLVESGGGLVQPGGSLRLSCAASGFNLSTHVMHWVRQAPGKGLEWVAEFYPYVGYTYYADSVKGRFTISADTSKNTAYLQMNSLRAEDTAVYYCSRGYRYQYMDVWGQGTLVTVSS
B3: H/R/N RAS Q61R_A1_c118 (scFv)
scFv: DIQMTQSPSSLSASVGDRVTITCRASQDVNTAVAWYQQKPGKAPKLLIYSASFLYSGVPSRFSGSRSGTDFTLTISSLQPEDFATYYCQQSYTSPLTFGQGTKVEIKRTGGGSGGGGSGGGASEVQLVESGGGLVQPGGSLRLSCAASGFNIYYGVMHWVRQAPGKGLEWVAMIYPDSSWTYYADSVKGRFTISADTSKNTAYLQMNSLRAEDTAVYYCSRDQDFHYMNYYLSYALDYWGQGTLVTVSS
B4: KRAS_G12_VA11_V9 (scFv)
scFv: DIQMTQSPSSLSASVGDRVTITCRASQDVNTAVAWYQQKPGKAPKLLIYSASFLYSGVPSRFSGSRSGTDFTLTISSLQPEDFATYYCQQYAYYPITFGQGTKVEIKRTGGGSGGGGSGGGASEVQLVESGGGLVQPGGSLRLSCAASGFNISSTGMHWVRQAPGKGLEWVAELLGGSGNTNYADSVKGRFTISADTSKNTAYLQMNSLRAEDTAVYYCSRGLQYSAMDYWGQGTLVTVSS
B5: KRAS_G12V_A11_V3 (scFv)
scFv: DIQMTQSPSSLSASVGDRVTITCRASQDVNTAVAWYQQKPGKAPKLLIYSASFLYSGVPSRFSGSRSGTDFTLTISSLQPEDFATYYCQQSSYTPITFGQGTKVEIKRTGGGSGGGGSGGGASEVQLVESGGGLVQPGGSLRLSCAASGFNISQGGIHWVRQAPGKGLEWVAYVYPGGGQTNYADSVKGRFTISADTSKNTAYLQMNSLRAEDTAVYYCSRGYDYSAFDYWGQGTLVTVSS
B6: KRAS_G12V_A11V10 (scFv)
scFv: DIQMTQSPSSLSASVGDRVTITCRASQDVNTAVAWYQQKPGKAPKLLIYSASFLYSGVPSRFSGSRSGTDFTLTISSLQPEDFATYYCQQYEYYPITFGQGTKVEIKRTGGGSGGGGSGGGASEVQLVESGGGLVQPGGSLRLSCAASGFNFFSTVIHWVRQAPGKGLEWVAEIYPWSGSTYYADSVKGRFTISADTSKNTAYLQMNSLRAEDTAVYYCSRSRSSNYYFDVWGQGTLVTVSS
B7: IDH2_R140Q_B7_D4 (scFv)
scFv: DIQMTQSPSSLSASVGDRVTITCRASQDVNTAVAWYQQKPGKAPKLLIYSASFLYSGVPSRFSGSRSGTDFTLTISSLQPEDFATYYCQQYSYSPPTFGQGTKVEIKRTGGGSGGGGSGGGASEVQLVESGGGLVQPGGSLRLSCAASGFNISDTYIHWVRQAPGKGLEWVASISPRTGYNRYADSVKGRFTISADTSKNTAYLQMNSLRAEDTAVYYCSRAYYSYAYAMDVWGQGTLVTVSS
B8: p53_R248W_A2_c18 (scFv)
scFv: DIQMTQSPSSLSASVGDRVTITCRASQDVNTAVAWYQQKPGKAPKLLIYSASFLYSGVPSRFSGSRSGTDFTLTISSLQPEDFATYYCQQYSYSPITFGQGTKVEIKRTGGGSGGGGSGGGASEVQLVESGGGLVQPGGSLRLSCAASGFNLFGYGMHWVRQAPGKGLEWVAEIGPYYYYTSYADSVKGRFTISADTSKNTAYLQMNSLRAEDTAVYYCSRENYDMAMDYWGQGTLVTVSS
B9: H/R/N RAS Q61R_A1_c122 (scFv)
scFv: DIQMTQSPSSLSASVGDRVTITCRASQDVNTAVAWYQQKPGKAPKLLIYSASFLYSGVPSRFSGSRSGTDFTLTISSLQPEDFATYYCQQYWYLPTTFGQGTKVEIKRTGGGSGGGGSGGGASEVQLVESGGGLVQPGGSLRLSCAASGFNISWYDIHWVRQAPGKGLEWVADIEPSVGYTYYADSVKGRFTISADTSKNTAYLQMNSLRAEDTAVYYCSRSYPYYYFDYWGQGTLVTVSS
B10: KRAS_G12V_A11_V24 (scFv)
scFv: DIQMTQSPSSLSASVGDRVTITCRASQDVNTAVAWYQQKPGKAPKLLIYSASFLYSGVPSRFSGSRSGTDFTLTISSLQPEDFATYYCQQSSVEPWTFGQGTKVEIKRTGGGSGGGGSGGGASEVQLVESGGGLVQPGGSLRLSCAASGFNVSYYSIHWVRQAPGKGLEWVAYIYPWNDYTYYADSVKGRFTISADTSKNTAYLQMNSLRAEDTAVYYCSRGSYYSFDYWGQGTLVTVSS
B11: p53_R248Q_A2_c14 (scFv)
scFv: DIQMTQSPSSLSASVGDRVTITCRASQDVNTAVAWYQQKPGKAPKLLIYSASFLYSGVPSRFSGSRSGTDFTLTISSLQPEDFATYYCQQSLYGPFTFGQGTKVEIKRTGGGSGGGGSGGGASEVQLVESGGGLVQPGGSLRLSCAASGFNIAYEYMHWVRQAPGKGLEWVALIGPDSGYTYYADSVKGRFTISADTSKNTAYLQMNSLRAEDTAVYYCSRVWYYSTYGMDYWGQGTLVTVSS
B12: H/R/N RAS Q61R_A1_c117 (scFv)
scFv: DIQMTQSPSSLSASVGDRVTITCRASQDVNTAVAWYQQKPGKAPKLLIYSASFLYSGVPSRFSGSRSGTDFTLTISSLQPEDFATYYCQQSVYDPITFGQGTKVEIKRTGGGSGGGGSGGGASEVQLVESGGGLVQPGGSLRLSCAASGFNISGSWIHWVRQAPGKGLEWVAWLYPDSDYTYYADSVKGRFTISADTSKNTAYLQMNSLRAEDTAVYYCSRAHTYAFDYWGQGTLVTVSS
B13: KRAS_G12V_A11_V21 (scFv)
scFv: DIQMTQSPSSLSASVGDRVTITCRASQDVNTAVAWYQQKPGKAPKLLIYSASFLYSGVPSRFSGSRSGTDFTLTISSLQPEDFATYYCQQYTYYPITFGQGTKVEIKRTGGGSGGGGSGGGASEVQLVESGGGLVQPGGSLRLSCAASGFNLHGYLMHWVRQAPGKGLEWVAFIYPPNGYTYYADSVKGRFTISADTSKNTAYLQMNSLRAEDTAVYYCSRGVDYAYLDYWGQGTLVTVSS
B14: p53_R248Q_A2_c10 (scFv)
scFv: DIQMTQSPSSLSASVGDRVTITCRASQDVNTAVAWYQQKPGKAPKLLIYSASFLYSGVPSRFSGSRSGTDFTLTISSLQPEDFATYYCQQSGYAPITFGQGTKVEIKRTGGGSGGGGSGGGASEVQLVESGGGLVQPGGSLRLSCAASGFNISYYSMHWVRQAPGKGLEWVADVDPDSDYTEYADSVKGRFTISADTSKNTAYLQMNSLRAEDTAVYYCSRSWIHMFSMDYWGQGTLVTVSS
B15: p53_R248W_A2_c111 (scFv)
scFv: DIQMTQSPSSLSASVGDRVTITCRASQDVNTAVAWYQQKPGKAPKLLIYSASFLYSGVPSRFSGSRSGTDFTLTISSLQPEDFATYYCQQSGYQPDTFGQGTKVEIKRTGGGSGGGGSGGGASEVQLVESGGGLVQPGGSLRLSCAASGFNISWYAMHWVRQAPGKGLEWVAEIWPDSDWTYYADSVKGRFTISADTSKNTAYLQMNSLRAEDTAVYYCSRYYYSSAFDVWGQGTLVTVSS
B16: p53_R248QW_A2_c114 (scFv)
scFv: DIQMTQSPSSLSASVGDRVTITCRASQDVNTAVAWYQQKPGKAPKLLIYSASFLYSGVPSRFSGSRSGTDFTLTISSLQPEDFATYYCQQYLYQPWTFGQGTKVEIKRTGGGSGGGGSGGGASEVQLVESGGGLVQPGGSLRLSCAASGFNIDYYGMHWVRQAPGKGLEWVASLYGGSDSTDYADSVKGRFTISADTSKNTAYLQMNSLRAEDTAVYYCSRQYSAYFDYWGQGTLVTVSS
B17: p53_R248QW_A2_c117 (scFv)
scFv: DIQMTQSPSSLSASVGDRVTITCRASQDVNTAVAWYQQKPGKAPKLLIYSASFLYSGVPSRFSGSRSGTDFTLTISSLQPEDFATYYCQQGLYYPWTFGQGTKVEIKRTGGGSGGGGSGGGASEVQLVESGGGLVQPGGSLRLSCAASGFNVSYSSIHWVRQAPGKGLEWVAEIWPDSGQTWYADSVKGRFTISADTSKNTAYLQMNSLRAEDTAVYYCSRSSYFDAMDYWGQGTLVTVSS
B18: H/R/N RAS Q61R_A1_c119 (scFv)
scFv: DIQMTQSPSSLSASVGDRVTITCRASQDVNTAVAWYQQKPGKAPKLLIYSASFLYSGVPSRFSGSRSGTDFTLTISSLQPEDFATYYCQQGQYSPFTFGQGTKVEIKRTGGGSGGGGSGGGASEVQLVESGGGLVQPGGSLRLSCAASGFNVSYEYMHWVRQAPGKGLEWVAEIYGGSDNTYYADSVKGRFTISADTSKNTAYLQMNSLRAEDTAVYYCSRPLGSYFDYWGQGTLVTVSS

How the values were obtained:
[1] = biological target: p53 wt(245-254) peptide … with HLA-A2 and b2M on peptide-pulsed T2 cells (human); assay: flow cytometry, phage-displayed scFv on peptide-pulsed T2 cells (FIG. 4)
Procedure: (§1) Cells were stained with 10 μL of precipitated phage per 100 μL of cells, washed and stained with rabbit anti-M13 antibody, then washed and stained with anti-Rabbit-PE antibody. Cells were stained with a live/dead Near-IR dye, washed, and analyzed by an LSRII flow cytometer.
(§2) The pulsed cells were pelleted, washed once in cold stain buffer (PBS containing 0.5% BSA, 2 mM EDTA, and 0.1% sodium azide), and resuspended in 100 μL of stain buffer. Phage staining was performed on ice with 10 uL (approximately 1×10⁹) phage for 1 hour in 100 uL total volume, followed by one 4 mL wash in cold stain buffer. Cells were then stained with 1 uL of rabbit anti-M13 antibody (Pierce, Rockford, Ill.) in 100 uL total volume on ice for 1 hour and washed once with 4 mL of cold stain buffer. Cells were stained with anti-rabbit-PE (Biolegend) on ice for 1 hour in 100 uL total volume, followed by incubation with LIVE/DEAD Fixable Near-IR Dead Cell Stain (Thermo Fisher) for 10 min at room temperature per manufacturer's instructions. Cells were washed once in 4 mL of stain buffer followed by resuspension in 300 uL of stain buffer before analysis. Stained cells were analyzed using an LSRII flow cytometer (Becton Dickinson, Mansfield, Mass.).

[2] = biological target: KRAS wt(7-16) peptide … with HLA-A11 and b2M on peptide-pulsed Hs611.T cells (human); assay: flow cytometry, phage-displayed scFv on peptide-pulsed Hs611.T cells (FIG. 11)
Procedure: as §1, §2

[3] = biological target: H/K/N RAS wt(55-64) peptide … with HLA-A1 and b2M on peptide-pulsed SigM5 cells (human); assay: flow cytometry, phage-displayed scFv on peptide-pulsed SigM5 cells (FIG. 14)
Procedure: as §1, §2

[4] = biological target: T1, IDH2 wt peptide (…) HLA-B7 biotinylated monomer (biotinylated (site not given)); assay: phage ELISA on monomer-coated streptavidin plate (FIG. 1)
T1 construct: also called wt version of the peptide of interest in complex with the same HLA allele

[5] = biological target: control 1 peptide (…, artificial sequence) HLA-B7 biotinylated monomer (biotinylated (site not given)); assay: as above
[6] = biological target: control 3 peptide (…, a different peptide from wt IDH2) HLA-B7 biotinylated monomer (biotinylated (site not given)); assay: as above
[7] = biological target: T2, IDH2 wt(134-143) peptide … with HLA-B7 and b2M on cells (human); assay: flow cytometry, phage-displayed scFv on peptide-pulsed RPMI-6666 cells (FIG. 3)
T2 construct: peptide-pulsed RPMI-6666 cells in flow cytometry
Procedure: as §1, §2

Binder	binding result [1]	binding result [2]	other results
B1	no binding	–	–
B2	–	no binding	–
B3	–	–	binding result [3]: no binding
B4	–	no binding	–
B5	–	no binding	–
B6	–	no binding	–
B7	–	–	binding result [4]: no binding; binding result [5]: no binding; binding result [6]: no binding; binding result [7]: no binding
B8	no binding	–	–
B9	–	–	binding result [3]: no binding
B10	–	no binding	–
B11	no binding	–	–
B12	–	–	binding result [3]: no binding
B13	–	no binding	–
B14	no binding	–	–
B15	no binding	–	–
B16	no binding	–	–
B17	no binding	–	–
B18	–	–	binding result [3]: no binding

From patent US20200079854A1 (Johns Hopkins, published 2020)
